Four molecules from patent publication US20240392004A1 (IMMUNOWAKE, published 2024) can be followed below.

Assay [1] addresses human PD-1 on cells (HEK-PD-1 reporter cells; activated PBMC) (human, UniProt Q15116 25-288). The experiment in a line: cell-based or functional assay.
Assay [2] concerns the target T1, human IL-2 receptor (IL-2Rα, IL-2Rβ, IL-2Rγ) (human, UniProt P01589 22-272; P14784 27-551; P31785 23-369).
T1 sequence (looked up) 1: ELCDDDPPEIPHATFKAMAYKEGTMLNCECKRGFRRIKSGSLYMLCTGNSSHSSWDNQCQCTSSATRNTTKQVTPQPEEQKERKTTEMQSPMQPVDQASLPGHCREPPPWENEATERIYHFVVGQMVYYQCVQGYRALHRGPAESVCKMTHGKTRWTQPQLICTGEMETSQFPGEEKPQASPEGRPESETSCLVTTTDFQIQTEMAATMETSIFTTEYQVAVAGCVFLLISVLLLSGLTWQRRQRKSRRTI
T1 sequence (looked up) 2: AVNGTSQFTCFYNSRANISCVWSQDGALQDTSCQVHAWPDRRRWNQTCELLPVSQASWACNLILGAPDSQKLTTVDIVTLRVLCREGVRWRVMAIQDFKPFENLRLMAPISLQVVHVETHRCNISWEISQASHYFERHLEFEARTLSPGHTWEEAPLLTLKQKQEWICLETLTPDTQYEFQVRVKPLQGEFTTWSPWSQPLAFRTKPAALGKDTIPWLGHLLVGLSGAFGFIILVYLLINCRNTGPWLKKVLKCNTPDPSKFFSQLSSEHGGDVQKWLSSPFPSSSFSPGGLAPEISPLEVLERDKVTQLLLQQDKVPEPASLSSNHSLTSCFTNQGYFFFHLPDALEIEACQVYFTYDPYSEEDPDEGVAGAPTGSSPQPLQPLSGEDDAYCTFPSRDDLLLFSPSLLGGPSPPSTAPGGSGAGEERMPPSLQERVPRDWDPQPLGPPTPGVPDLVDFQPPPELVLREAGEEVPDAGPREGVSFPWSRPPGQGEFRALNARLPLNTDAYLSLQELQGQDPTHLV
T1 sequence (looked up) 3: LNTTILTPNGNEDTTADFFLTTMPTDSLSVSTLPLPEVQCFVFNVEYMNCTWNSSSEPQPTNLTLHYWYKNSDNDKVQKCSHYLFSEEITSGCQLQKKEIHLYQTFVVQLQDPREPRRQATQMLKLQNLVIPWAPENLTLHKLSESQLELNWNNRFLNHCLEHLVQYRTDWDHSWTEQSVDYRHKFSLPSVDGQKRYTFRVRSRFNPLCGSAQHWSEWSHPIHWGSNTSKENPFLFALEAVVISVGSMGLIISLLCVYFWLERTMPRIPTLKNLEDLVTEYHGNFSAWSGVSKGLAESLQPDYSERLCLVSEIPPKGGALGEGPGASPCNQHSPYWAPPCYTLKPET
The experiment in a line: cell-based or functional assay.

Sequence of human PD-1 on cells (HEK-PD-1 reporter cells; activated PBMC) (Q15116 25-288): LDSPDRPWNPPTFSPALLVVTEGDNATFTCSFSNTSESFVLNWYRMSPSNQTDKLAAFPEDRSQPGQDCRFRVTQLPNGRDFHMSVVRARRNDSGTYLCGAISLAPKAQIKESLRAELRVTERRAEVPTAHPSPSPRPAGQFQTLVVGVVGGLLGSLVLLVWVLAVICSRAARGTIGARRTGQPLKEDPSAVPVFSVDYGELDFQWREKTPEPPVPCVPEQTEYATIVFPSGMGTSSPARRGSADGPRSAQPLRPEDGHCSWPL

B1: IL-2(R38D/K43E/E61R)/PD-L1(mut2)-Fc (Fc fusion)
chain 1: FTVTVPKDLYVVEYGSNMTIECKFPVEKQLDLAALQVYWMMEDKNIIQFVHGEEDLKVQHSSYRQRARLLKDQLSLGNAALQITDVKLQDAGVYTCLIAYKGADYKRITVKVNAPYNKINQRILVVDPVTSEHELTCQAEGYPKAEVIWTSSDHQVLSGKTTTTNSKREEKLFNVTSTLRINTTTNEIFYCTFRRLDPEENHTAELVIPELPLAHPPNERGGGGSGGGDKTHTCPPCPAPEDEGGPSVFLFPPKPKDTLMISRTPEVTCVVVDVSHEDPEVKFNWYVDGVEVHNAKTKPREEQYNSTYRVVSVLTVLHQDWLNGKEYKCKVSNKALPAPIEKTISKAKGQPREPQVYVYPPSREEMTKNQVSLTCLVKGFYPSDIAVEWESNGQPENNYKTTPPVLDEDGSFALVSKLTVDKSRWQQGNVFSCSVMHEALHNHYTQKSLSLSPGK
chain 2: FTVTVPKDLYVVEYGSNMTIECKFPVEKQLDLAALQVYWMMEDKNIIQFVHGEEDLKVQHSSYRQRARLLKDQLSLGNAALQITDVKLQDAGVYTCLIAYKGADYKRITVKVNAPYNKINQRILVVDPVTSEHELTCQAEGYPKAEVIWTSSDHQVLSGKTTTTNSKREEKLFNVTSTLRINTTTNEIFYCTFRRLDPEENHTAELVIPELPLAHPPNERGGGSGAPTSSSTKKTQLQLEHLLLDLQMILNGINNYKNPKLTDMLTFEFYMPKKATELKHLQCLERELKPLEEVLNLAQSKNFHLRPRDLISNINVIVLELKGSETTFMCEYADETATIVEFLNRWITFCQSIISTLTGGGGSGGGDKTHTCPPCPAPEKKGGPSVFLFPPKPKDTLMISRTPEVTCVVVDVSHEDPEVKFNWYVDGVEVHNAKTKPREEQYNSTYRVVSVLTVLHQDWLNGKEYKCKVSNKALPAPIEKTISKAKGQPREPQVYVLPPSREEMTKNQVSLLCLVKGFYPSDIAVEWESNGQPENRYMTWPPVLDSDGSFFLYSKLTVDKSRWQQGNVFSCSVMHEALHNHYTQKSLSLSPGK
As for B1, in assay [1], the “IL-2 signal transduction, HEK-IL-2-PD-1” value amounted to 76%. In assay [2], the “IL-2 signal transduction, HEK-IL-2” value came to 16%.

B2: IL-2(L18R/Q22E/R38D/K43E/E61R/Q126T)/PD-L1(mut2)-Fc (Fc fusion)
chain 1: FTVTVPKDLYVVEYGSNMTIECKFPVEKQLDLAALQVYWMMEDKNIIQFVHGEEDLKVQHSSYRQRARLLKDQLSLGNAALQITDVKLQDAGVYTCLIAYKGADYKRITVKVNAPYNKINQRILVVDPVTSEHELTCQAEGYPKAEVIWTSSDHQVLSGKTTTTNSKREEKLFNVTSTLRINTTTNEIFYCTFRRLDPEENHTAELVIPELPLAHPPNERGGGGSGGGDKTHTCPPCPAPEDEGGPSVFLFPPKPKDTLMISRTPEVTCVVVDVSHEDPEVKFNWYVDGVEVHNAKTKPREEQYNSTYRVVSVLTVLHQDWLNGKEYKCKVSNKALPAPIEKTISKAKGQPREPQVYVYPPSREEMTKNQVSLTCLVKGFYPSDIAVEWESNGQPENNYKTTPPVLDEDGSFALVSKLTVDKSRWQQGNVFSCSVMHEALHNHYTQKSLSLSPGK
chain 2: FTVTVPKDLYVVEYGSNMTIECKFPVEKQLDLAALQVYWMMEDKNIIQFVHGEEDLKVQHSSYRQRARLLKDQLSLGNAALQITDVKLQDAGVYTCLIAYKGADYKRITVKVNAPYNKINQRILVVDPVTSEHELTCQAEGYPKAEVIWTSSDHQVLSGKTTTTNSKREEKLFNVTSTLRINTTTNEIFYCTFRRLDPEENHTAELVIPELPLAHPPNERGGGSGAPTSSSTKKTQLQLEHLRLDLEMILNGINNYKNPKLTDMLTFEFYMPKKATELKHLQCLERELKPLEEVLNLAQSKNFHLRPRDLISNINVIVLELKGSETTFMCEYADETATIVEFLNRWITFCTSIISTLTGGGGSGGGDKTHTCPPCPAPEKKGGPSVFLFPPKPKDTLMISRTPEVTCVVVDVSHEDPEVKFNWYVDGVEVHNAKTKPREEQYNSTYRVVSVLTVLHQDWLNGKEYKCKVSNKALPAPIEKTISKAKGQPREPQVYVLPPSREEMTKNQVSLLCLVKGFYPSDIAVEWESNGQPENRYMTWPPVLDSDGSFFLYSKLTVDKSRWQQGNVFSCSVMHEALHNHYTQKSLSLSPGK
As for B2, the “IL-2 signal transduction, HEK-IL-2-PD-1” value in assay [1] came out at 5%. Also, the “IL-2 signal transduction, HEK-IL-2” value in assay [2] was less than 0.1%.

B3: IL-2(R38D/K43E/E61R/Q126T)/PD-L1(mut2)-Fc (Fc fusion)
chain 1: FTVTVPKDLYVVEYGSNMTIECKFPVEKQLDLAALQVYWMMEDKNIIQFVHGEEDLKVQHSSYRQRARLLKDQLSLGNAALQITDVKLQDAGVYTCLIAYKGADYKRITVKVNAPYNKINQRILVVDPVTSEHELTCQAEGYPKAEVIWTSSDHQVLSGKTTTTNSKREEKLFNVTSTLRINTTTNEIFYCTFRRLDPEENHTAELVIPELPLAHPPNERGGGGSGGGDKTHTCPPCPAPEDEGGPSVFLFPPKPKDTLMISRTPEVTCVVVDVSHEDPEVKFNWYVDGVEVHNAKTKPREEQYNSTYRVVSVLTVLHQDWLNGKEYKCKVSNKALPAPIEKTISKAKGQPREPQVYVYPPSREEMTKNQVSLTCLVKGFYPSDIAVEWESNGQPENNYKTTPPVLDEDGSFALVSKLTVDKSRWQQGNVFSCSVMHEALHNHYTQKSLSLSPGK
chain 2: FTVTVPKDLYVVEYGSNMTIECKFPVEKQLDLAALQVYWMMEDKNIIQFVHGEEDLKVQHSSYRQRARLLKDQLSLGNAALQITDVKLQDAGVYTCLIAYKGADYKRITVKVNAPYNKINQRILVVDPVTSEHELTCQAEGYPKAEVIWTSSDHQVLSGKTTTTNSKREEKLFNVTSTLRINTTTNEIFYCTFRRLDPEENHTAELVIPELPLAHPPNERGGGSGAPTSSSTKKTQLQLEHLLLDLQMILNGINNYKNPKLTDMLTFEFYMPKKATELKHLQCLERELKPLEEVLNLAQSKNFHLRPRDLISNINVIVLELKGSETTFMCEYADETATIVEFLNRWITFCTSIISTLTGGGGSGGGDKTHTCPPCPAPEKKGGPSVFLFPPKPKDTLMISRTPEVTCVVVDVSHEDPEVKFNWYVDGVEVHNAKTKPREEQYNSTYRVVSVLTVLHQDWLNGKEYKCKVSNKALPAPIEKTISKAKGQPREPQVYVLPPSREEMTKNQVSLLCLVKGFYPSDIAVEWESNGQPENRYMTWPPVLDSDGSFFLYSKLTVDKSRWQQGNVFSCSVMHEALHNHYTQKSLSLSPGK
Regarding B3, the “IL-2 signal transduction, HEK-IL-2-PD-1” value in assay [1] is 20%. Besides, in assay [2], the “IL-2 signal transduction, HEK-IL-2” value was 2%.

B4: IL-2(L18R/Q22E/R38D/K43E/E61R)/PD-L1(mut2)-Fc (Fc fusion)
chain 1: FTVTVPKDLYVVEYGSNMTIECKFPVEKQLDLAALQVYWMMEDKNIIQFVHGEEDLKVQHSSYRQRARLLKDQLSLGNAALQITDVKLQDAGVYTCLIAYKGADYKRITVKVNAPYNKINQRILVVDPVTSEHELTCQAEGYPKAEVIWTSSDHQVLSGKTTTTNSKREEKLFNVTSTLRINTTTNEIFYCTFRRLDPEENHTAELVIPELPLAHPPNERGGGGSGGGDKTHTCPPCPAPEDEGGPSVFLFPPKPKDTLMISRTPEVTCVVVDVSHEDPEVKFNWYVDGVEVHNAKTKPREEQYNSTYRVVSVLTVLHQDWLNGKEYKCKVSNKALPAPIEKTISKAKGQPREPQVYVYPPSREEMTKNQVSLTCLVKGFYPSDIAVEWESNGQPENNYKTTPPVLDEDGSFALVSKLTVDKSRWQQGNVFSCSVMHEALHNHYTQKSLSLSPGK
chain 2: FTVTVPKDLYVVEYGSNMTIECKFPVEKQLDLAALQVYWMMEDKNIIQFVHGEEDLKVQHSSYRQRARLLKDQLSLGNAALQITDVKLQDAGVYTCLIAYKGADYKRITVKVNAPYNKINQRILVVDPVTSEHELTCQAEGYPKAEVIWTSSDHQVLSGKTTTTNSKREEKLFNVTSTLRINTTTNEIFYCTFRRLDPEENHTAELVIPELPLAHPPNERGGGSGAPTSSSTKKTQLQLEHLRLDLEMILNGINNYKNPKLTDMLTFEFYMPKKATELKHLQCLERELKPLEEVLNLAQSKNFHLRPRDLISNINVIVLELKGSETTFMCEYADETATIVEFLNRWITFCQSIISTLTGGGGSGGGDKTHTCPPCPAPEKKGGPSVFLFPPKPKDTLMISRTPEVTCVVVDVSHEDPEVKFNWYVDGVEVHNAKTKPREEQYNSTYRVVSVLTVLHQDWLNGKEYKCKVSNKALPAPIEKTISKAKGQPREPQVYVLPPSREEMTKNQVSLLCLVKGFYPSDIAVEWESNGQPENRYMTWPPVLDSDGSFFLYSKLTVDKSRWQQGNVFSCSVMHEALHNHYTQKSLSLSPGK
As to B4, in assay [1], the “IL-2 signal transduction, HEK-IL-2-PD-1” value is 35%. Further, in assay [2], the “IL-2 signal transduction, HEK-IL-2” value amounted to 4%.
